Source: US20240287172A1 (SCIRHOM, published 2024)
Positions count from the first letter of the chain named.

T1: hiR2-FL-L539A-T7 (human, UniProt Q6PJF5 1-856)
T1 construct: on MEF-DKO cells
T1 sequence: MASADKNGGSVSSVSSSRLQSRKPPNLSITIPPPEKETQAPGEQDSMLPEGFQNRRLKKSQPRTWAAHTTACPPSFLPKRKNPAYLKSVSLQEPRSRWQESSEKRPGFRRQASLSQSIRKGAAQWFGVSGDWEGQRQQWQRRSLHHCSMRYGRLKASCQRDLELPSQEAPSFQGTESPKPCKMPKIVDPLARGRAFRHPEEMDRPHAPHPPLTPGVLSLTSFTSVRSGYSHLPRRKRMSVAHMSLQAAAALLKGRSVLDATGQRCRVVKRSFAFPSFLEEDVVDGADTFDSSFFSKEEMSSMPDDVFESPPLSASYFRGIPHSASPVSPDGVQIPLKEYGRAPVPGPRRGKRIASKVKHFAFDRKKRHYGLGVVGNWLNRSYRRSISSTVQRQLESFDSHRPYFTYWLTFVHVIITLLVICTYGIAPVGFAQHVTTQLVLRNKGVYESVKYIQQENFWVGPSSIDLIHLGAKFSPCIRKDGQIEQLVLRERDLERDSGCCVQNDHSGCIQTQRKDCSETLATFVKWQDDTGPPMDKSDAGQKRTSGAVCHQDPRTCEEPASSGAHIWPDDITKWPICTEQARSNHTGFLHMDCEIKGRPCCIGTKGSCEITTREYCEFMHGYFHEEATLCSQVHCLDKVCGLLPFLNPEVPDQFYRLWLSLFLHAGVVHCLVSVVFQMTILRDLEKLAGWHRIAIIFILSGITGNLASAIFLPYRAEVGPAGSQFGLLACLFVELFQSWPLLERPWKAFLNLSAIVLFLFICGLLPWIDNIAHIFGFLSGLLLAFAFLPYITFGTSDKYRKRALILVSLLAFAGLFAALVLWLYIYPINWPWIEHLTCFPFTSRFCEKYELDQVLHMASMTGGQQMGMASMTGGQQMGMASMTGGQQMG

T2: hiR2-FL-D535A-T7 (human, UniProt Q6PJF5 1-856)
T2 sequence: T1 sequence with D535A, A539L

B1: antibody 5 (antibody, V domains shown)
VH: QVTLKESGPGILQPSQTLSLTCSFSGFSLSTFGMGVGWIRQPSGKGLEWLAHIWWDDEKYYNSALKSRLTISKATSKNQAFLKIANVDTADTATYYCARISNYGSNYWYFNVWGTGTTVTVSS
VL: QVVLTQSPALMSASPGEKVTMTCSAGSSVSCMYWYQQKPGSSPRVLIYDTSNLASGVPARFTGSGSGTSYSLTISRMEAEDAASYYCQQWNSYPLTFGAGTKLELK
notes: mouse IgG, kappa light chain; also called clone #5; purified antibody 5
B2: antibody 42 (antibody, V domains shown)
VH: B1 VH with F24L, M34R, S63P, A74D, A80V, K83R, S101Q, N111D
VL: LIVLTQSPAIMSASPGEKVTMTCGATSRISYMFWYQQKPGSSPRVLIYDTSNLASGVPVRFSGSGSGTSYSLTISRVEAEDVATYYCQQWNSYPLTFGAGTKLELK
notes: mouse IgG, kappa light chain; also called clone #42; purified antibody 42
B3: antibody 44 (antibody, V domains shown)
VH: B1 VH with G44E, E58D, S63P, A74D, A80I, A85T, D91E, A98S, S101G, N111D
VL: QIVLTQSPAVMSASPGEKVTMTCTASSSVYYMYWYQQTPGSSPRLLIYDTSNLASGVPVRFSGSGSGTSYSLTISRMEAEDAATYYCQQWNTYPLTFGAGTKLELK
notes: mouse IgG, kappa light chain; also called clone #44; purified antibody 44
B4: antibody 43 (antibody, V domains shown)
VH: B1 VH with T3A, P42S, H52N, E58D, S63P, A74D, T75A, S101G, N111D
VL: B2 VL with L1Q, K18R, G24S, T26N, F33Y, V45L, V77M, V82A, Y86N, N91S
notes: mouse IgG, kappa light chain; also called clone #43; purified antibody 43
B5: antibody 22 (antibody, V domains shown)
VH: B1 VH with A80V
VL: B1 VL with C31Y, S84T
notes: mouse IgG, kappa light chain; also called clone #22; purified antibody 22
B6: antibody 50 (antibody, V domains shown)
VH: QVQLQQSGAELVRPGASVKVSCKASGYAFSNYLIEWVKQRPGQGLEWIGVINPGSGFTKYNEKFKGKATLTADKSSSTAYMQLSSLTSEDSAVYFCARGLYRAMDYWGQGTSVTVSS
VL: DIQMTQSPASQSASLGESVTITCLASQTIGTWLAWYQQKPGKSPQLLIYAAASLADGVPSRFSGGGSGTKFSFKISSLQAEDFVNYYCQQIYSTPYTFGGGTKLEIK
notes: mouse IgG, kappa light chain; also called clone #50; purified antibody 50
B7: antibody 3 (antibody, V domains shown)
VH: QVTLKESGPGILQPSQTLSLTCSFSGFSLTTFAMGIGWVRQPSGKGLEWLAHIWWDGEKYNNPVLKSRLTISKDTSKNQVFLRIANVDTPDTATYYCARISSIYYIIDNWGQGTSVTVSS
VL: DIVLTQSPATLSVTPGHSVSLSCRASQSISNNLHWYQKKSHESPRLLIKYVSQSISGIPSRFSGSGSGTDFTLSINSVETEDFGMYFCQQSYNWPLTFGAGTKLELK
notes: mouse IgG, kappa light chain; also called clone #3; purified antibody 3
B8: antibody 34 (antibody, V domains shown)
VH: QVTLKESGPGILQPSQTLSLTCSFSGFSLSTFSLGVGWIRQSSGKGLEWLAHIWWDDEKYYNPALKSRLTISKDTSKNQVFLKIANVDAADTATYYCARAYYSKSYYALDYWGQGTSVTVSS
VL: DIQMTQSPSSLSASLGERVSLTCRASQEISGYLSWLQQKPDGTIKRLIYAASTLDSGVPKRFSGSRSGSDYSLAISSLESEDFADYYCLQYANFPFTFGSGTKLEIK
notes: mouse IgG, kappa light chain; also called clone #34; purified antibody 34

Key:
hiR2-FL-L539A-T7 = target: T1, hiR2-FL-L539A-T7; assay: FACS on MEF-DKO cells expressing the variant, 3 µg/ml antibody
Method: (§1) To pellet cells and remove supernatants, the plates were centrifuged at 1,500 rpm and 4° C. for 3 minutes. For primary staining, cells were resuspended in 100 μl per well of either FACS buffer alone (controls) or the purified antibodies 3, 5, 16, 22, 34, 42, 43, 44, 48, and 50 of the invention at 3 μg/ml in FACS buffer and incubated on ice for 1 hour. Afterwards, plates were centrifuged at 1,500 rpm and 4° C. for 3 minutes and washed twice with 200 μl per well of FACS buffer. For secondary staining, cells were spun down and resuspended in 100 μl per well of PE-conjugated goat anti-mouse IgG F(ab′)2 detection fragment (Dianova, Germany) diluted 1:100 in FACS buffer. Protected from light, the cell suspensions were incubated on ice for 1 hour. Plates were then centrifuged at 1,500 rpm and 4° C. for 3 minutes and washed three times with 200 μl per well of FACS buffer. Finally, cells were resuspended in 150 μl per well of FACS buffer and analyzed using a BD Accuri™ C6 Plus flow cytometer (Becton Dickinson, Germany).

hiR2-FL-D535A-T7 = target: T2, hiR2-FL-D535A-T7; assay: as above
Method: as §1

Binder | loss of binding vs wild type (hiR2-FL-L539A-T7) | loss of binding vs wild type (hiR2-FL-D535A-T7)
B1 | ≥ 60% | ≥ 60%
B2 | ≥ 60% | ≥ 30%
B3 | ≥ 60% | ≥ 30%
B4 | ≥ 95% | 
B5 | ≥ 95% | ≥ 30%
B6 | ≥ 30% | 
B7 | ≥ 30% | ≥ 60%
B8 | ≥ 60% | ≥ 30%
